Assay results: the supplement of paper PMC10724198
± gives the standard deviation of the averaged measurements.

These sequences were tested on Saccharomyces cerevisiae (assay: protein stability index of tFT-peptide fusion (C-terminal peptide) (PSI (0-1 scale)); higher = more stable (slower turnover)). Settings: genetic background: wild type; temperature: 30 C.
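Also: PSI is a weighted mean of sequencing reads over stability bins, variants kept only with over 10 reads, mCherry proximal and sfGFP distal, peptide attached via GGGS linker.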

Sequence	protein stability index
VPCCSAVDLLVS	0.5999 ± 0.0045
VPCYSSACHGDA	0.669 ± 0.1
VPFYHIFPPFRP	0.777 ± 0.088
VPFYSPPCYSCL	0.628 ± 0.04
VPLRVSLGCDAF	0.67 ± 0.04
VPPASLVCLTSP	0.667 ± 0.0015
VPPNTLTAPHLF	0.844 ± 0.046
VPPPSPTLSPHP	0.656 ± 0.28
VPPPTAPVPPRP	0.749 ± 0.096
VPRPPPHPPGDV	0.622 ± 0.016
VPRTFQDLLPAP	0.707 ± 0.04
VPSLFLYGNPMY	0.71 ± 0.036
VPSLPSPCSSCA	0.667 ± 0.046
VPSRTVTGTLPA	0.681 ± 0.026
VPSVCPFLSVLL	0.647 ± 0.035
VPSVGFSVHLLP	0.692 ± 0.021
VPVAAVGGGECG	0.575 ± 0.044
VPWGGLRFRDWW	0.659 ± 0.099
VPYGKILQQGDI	0.658 ± 0.048
VQEEGYYLHSSL	0.699 ± 0.021
VQLGLGPDSSRS	0.694 ± 0.019
VQSGIRLIFGRA	0.545 ± 0.014
VQVSGFPHSRTR	0.691 ± 0.023
VQYGHIVKGWCS	0.697 ± 0.013
VRAAAFCFVRFR	0.55 ± 0.021
VRAEVSNVDYVS	0.658 ± 0.0096

Sequence	protein stability index
VRALCRYRTVNG	0.685 ± 0.035
VRAVFPRSGLSC	0.696 ± 0.048
VRCRLLDVGDAS	0.642 ± 0.026
VRCSAASLKVRK	0.675 ± 0.01
VRDRTSRGMRPA	0.6945 ± 0.0043
VRDTTRTEKLGP	0.687 ± 0.002
VREGKDREVSGF	0.715 ± 0.031
VREKNHTLQMET	0.646 ± 0.017
VRGGGRRACVVG	0.607 ± 0.05
VRGGLVGRSVGC	0.559 ± 0.08
VRGKGWRVGWWG	0.668 ± 0.045
VRGRQGGGVGRA	0.682 ± 0.1
VRHLGAIPQLSG	0.637 ± 0.095
VRHSLFPCPSPT	0.714 ± 0.035
VRHSPVVPANRP	0.698 ± 0.094
VRIRRNGAVSFM	0.6829 ± 0.0038
VRITRPFKAPTP	0.711 ± 0.0056
VRLWLSLRLGFS	0.587 ± 0.068
VRNASEDSVGQL	0.708 ± 0.046
VRNESGGRAAAS	0.6988 ± 0.0016
VRQLRGPWMEYP	0.682 ± 0.076
VRRGAAGDDWGW	0.869 ± 0.057
VRRGCGVGACPG	0.618 ± 0.017
VRRILLGPPGRD	0.653 ± 0.085
VRRMLSSLIEGH	0.619 ± 0.0072
VRRSHSGSNDVP	0.673 ± 0.14

Sequence	protein stability index
VRSCCFFLDAVW	0.665 ± 0.029
VRSCFPVGMVWR	0.72087 ± 0.00045
VRSLSSPPAPAT	0.736 ± 0.038
VRSPLEHTVPFS	0.655 ± 0.057
VRSRRQLPPADP	0.723 ± 0.083
VRSYLARFEVYV	0.531 ± 0.019
VRTSWRHESIKK	0.618 ± 0.019
VRVRPAVRSGPE	0.616 ± 0.006
VSCFVWFGFSCI	0.5202 ± 0.0034
VSCPGWVVHVIV	0.48 ± 0.079
VSDLFWAELIGN	0.71 ± 5.7e-06
VSGGRQGGWGGW	0.691 ± 0.034
VSGWDCEGDWVA	0.76 ± 0.0096
VSLGHCGFYSRV	0.648 ± 0.039
VSLLSSDTRSAY	0.753 ± 0.07
VSLPTAPFPLPS	0.844 ± 0.084
VSLVYLDHLSRS	0.702 ± 0.029
VSPLVRVFSCAI	0.598 ± 0.033
VSQKQALVCPRI	0.705 ± 0.085
VSRGRSAKKSAI	0.695 ± 0.06
VSRTVLSSDHRG	0.752 ± 0.076
VSRYRQWGSWER	0.649 ± 0.013
VSSRHNCFRHGS	0.696 ± 0.039
VSTLAPPQLQFK	0.669 ± 0.081
VSVGCLFVVGRG	0.713 ± 0.039
VSWVYNFKKIRS	0.694 ± 0.078

Sequence	protein stability index
VTCADEYYHSRR	0.686 ± 0.03
VTECLRQWERLG	0.545 ± 0.045
VTFTERIAIEWD	0.703 ± 0.054
VTGIDGGSLCLR	0.6842 ± 0.0059
VTGRTGGMWGAL	0.754 ± 0.085
VTKNRHRQTETQ	0.658 ± 0.036
VTLSPSLPGFPL	0.6839 ± 0.00089
VTLTPPVLYTSL	0.647 ± 0.059
VTVDLGCRATGE	0.675 ± 0.067
VTVGGAWSGTRG	0.647 ± 0.06
VTWNTLENMNLV	0.673 ± 0.032
VTYFIPVTNRAS	0.605 ± 0.0074
VVAERFADAKGS	0.653 ± 0.025
VVAVGHWFDGGV	0.623 ± 0.045
VVCFLVHGWGGW	0.638 ± 0.048
VVCLGGGVLPRV	0.654 ± 0.081
VVCRDGLSSCVG	0.623 ± 0.019
VVCSSGFVSDPG	0.5582 ± 0.0049
VVDGGEHVCYRI	0.654 ± 0.082
VVFSPQFRLPVP	0.66 ± 0.024
VVGFVRPGMQGL	0.673 ± 0.052
VVGGVGLGLWKV	0.659 ± 0.097
VVGRTNRYAVPH	0.662 ± 0.061
VVILGSMHLCSV	0.561 ± 0.016
VVLFPILKLLSN	0.53 ± 0.015
VVLWLASGVGGG	0.75 ± 0.061

Sequence	protein stability index
VVMLSLVALGRV	0.523 ± 0.026
VVQEIGGSVRRE	0.6814 ± 0.0035
VVRALSTQVCLP	0.645 ± 0.098
VVRFEGYVLGWG	0.647 ± 0.072
VVRKVALVALPL	0.574 ± 0.05
VVRLKRLPPCSS	0.699 ± 0.077
VVRSDFCFFFGI	0.754 ± 0.065
VVRWFGGGCVRG	0.682 ± 0.033
VVSGDAPVARRA	0.6781 ± 0.0056
VVSGSHSVLYGS	0.71 ± 0.028
VVSKMGFGAALV	0.654 ± 0.085
VVSRLCCTRIRQ	0.701 ± 0.04
VVSSAYRLKARP	0.696 ± 0.046
VVSSFHYTSRQC	0.744 ± 0.1
VVTRANVRRDKM	0.672 ± 0.023
VVVCGSSVLVLT	0.555 ± 0.041
VVVLVGGGWVCV	0.51 ± 0.035
VVVSGGGQGFWL	0.757 ± 0.064
VVWGLGAGRMVW	0.656 ± 0.076
VVWRCCGRGAEG	0.6457 ± 0.0016
VVYFARGDNVYA	0.682 ± 0.05
VWCGVLVRSCWV	0.52 ± 0.0091
VWCVGRVGYEGE	0.783 ± 0.1
VWFDPHEFIVIA	0.59 ± 0.027
VWFGLLTTVNID	0.5657 ± 0.0048
VWGGLAVVTGWA	0.612 ± 0.073

Sequence	protein stability index
VWGGLGGGVGRA	0.668 ± 0.014
VWGVCAVFGCAG	0.644 ± 0.12
VWKEPVQYSRQL	0.626 ± 0.051
VWLAGVMVGRFQ	0.5575 ± 0.0039
VWLWCDLSRGWI	0.733 ± 0.013
VWNLELFFTLAT	0.6331 ± 0.001
VWVVSGRGGWWG	0.6336 ± 0.0033
VWVWATGWGARG	0.7369 ± 0.0038
VYCIEFNRQWDA	0.693 ± 0.048
VYEGLRSGPRSL	0.718 ± 0.093
VYEIQCGSNFKG	0.7 ± 0.052
VYHFPDLFPLGI	0.7078 ± 0.0027
VYKLDLEEENRS	0.654 ± 0.072
WAAWYPGEHPVP	0.755 ± 0.12
WAIPSSPQYKRA	0.676 ± 0.031
WARVESFTSKTQ	0.6028 ± 0.0045
WCLGLGCVWGGW	0.779 ± 0.092
WCRGVGSWRGRG	0.688 ± 0.008
WCVEGVWRVRGW	0.649 ± 0.044
WDFLLQGISSPR	0.767 ± 0.12
WDGWPTRWGGTG	0.705 ± 0.017
WEGAGGGFGLVV	0.712 ± 0.05
WELPNRANDLSH	0.769 ± 0.11
WENKKRMIRQKL	0.526 ± 0.016
WERGKGGLVMEG	0.646 ± 0.0067
WEWLQAKCFLSQ	0.688 ± 0.086

Sequence	protein stability index
WFDVVALPCLSF	0.562 ± 0.0084
WFFSNLRRDCGG	0.735 ± 0.016
WFHPAPLCGPQS	0.662 ± 0.063
WFLCWGWGCGGA	0.673 ± 0.08
WFRPLSMLPPGF	0.701 ± 0.02
WGCFPGVVMGVS	0.594 ± 0.02
WGDDRIRVCVRG	0.611 ± 0.035
WGFWLCSGNWST	0.725 ± 0.0088
WGGGGGGGAAGS	0.679 ± 0.08
WGGGRGLRVVGG	0.733 ± 0.092
WGGWGRVWVKLG	0.701 ± 0.05
WGIVGLRGSRVG	0.618 ± 0.018
WGMVFQVFRRRN	0.582 ± 0.018
WGPGGRRGVGHV	0.727 ± 0.058
WGQCLYRSAGSV	0.715 ± 0.055
WGRCGAVGRGGA	0.693 ± 0.029
WGRGAVGPLLGV	0.632 ± 0.016
WGRLRFFDCSGF	0.605 ± 0.014
WGRRGRRGSWGA	0.683 ± 0.024
WGRRNFLPNSPR	0.67 ± 0.049
WGSLVRLFGLWR	0.6541 ± 0.0015
WGVWYGGAVRVG	0.5 ± 0.052
WIPSYMRFCALT	0.788 ± 0.098
WIRRWVGVEGPL	0.707 ± 0.079
WKNGYITGHRYM	0.66596 ± 0.00041
WLGSRGNGGWAE	0.696 ± 0.024

Sequence	protein stability index
WLPSSLPPIVHH	0.662 ± 0.018
WMCILESWDSVD	0.706 ± 0.099
WPFMGLSAGCLR	0.691 ± 0.028
WPLKTMLFGIWV	0.562 ± 0.028
WPSMFFSIEESW	0.887 ± 0.042
WPTPRVGIDLEN	0.631 ± 0.05
WQMRNGTSRSSL	0.631 ± 0.012
WREAVMKRQGGG	0.677 ± 0.014
WREGKTCTRKGG	0.57 ± 0.047
WRGQRGRIAGPR	0.6694 ± 0.0062
WRLGEREGWKAG	0.615 ± 0.0077
WRSGGGGGPAGV	0.6762 ± 0.0032
WRTRRVVFPNWH	0.666 ± 0.008
WSFQTRSVNICI	0.633 ± 0.021
WSLSSHCMLMVE	0.5394 ± 0.0051
WSPILEHAISDL	0.731 ± 0.017
WSPPRAAPRPHP	0.642 ± 0.045
WSRSEIGDGSAG	0.742 ± 0.023
WSSGDVRRAKEW	0.719 ± 0.078
WSVAVVWDALFG	0.699 ± 0.04
